Laboratory results as given in publication PMC4768246, “A novel cold-adapted and highly salt-tolerant esterase from Alkalibacterium sp. SL3 from the sediment of a soda lake” (Scientific Reports, 2016).

Substrate: CC(=O)Oc1ccc([N+](=O)[O-])cc1
Experiment: purified protein
Format: biochemical, Alkalibacterium sp. SL3
Details: 50 mM Tris-HCl pH 9.0, 30 °C, 5 min, 0.05–5 mM substrate

B1: EstSL3 (rEstSL3) (Alkalibacterium sp. SL3) (protein)
chain: MKINKNDTLLFIGDSITDVGRDRMDGEDLGKGFPLMVASHLQSRYPAKRLTVLNRGIGGDSLKDLKRRWEDDCLITNPDIVTLLIGVNDTWRNQNDGVELTDEELDEFESDYRFLLKSLHQRTDARVILMESFVLPYPKRRVGWRNDLDKRIQIVRKMARDYQTELIPLDGLLNAAGIRDGFSYYTGDDGVHPTVAGHGLIANSWLKAVDE
notes: His6-tagged from pET-28a(+) (NcoI-HindIII), E. coli BL21(DE3), Ni-NTA; internal peptides LTVLNRGIGGDSLKDLK, TDARVILMESFVLPYPKR, VGWRNDLDK; catalytic Ser15, Asp189, His192
B1 showed a Km of 150 ± 10 µM and a kcat of 307.69 s⁻¹.
